Experimental findings from patent US20250136720A1 (Boehringer Ingelheim, published 2025) are described below.

Assay [1] deals with T1, Murine Fibroblast Activation Protein (FAP) on B16 cells (mouse, UniProt P97321 1-761).
T1 construct: B16 cells transduced with murine FAP cDNA; also called B16-FAP
The experiment in a line: flow cytometry, scFv-Fc on B16-FAP cells.

In assay [2] the target is T2, Human Fibroblast Activation Protein (FAP) on HT1080 cells (human, UniProt Q12884 1-760).
T2 construct: HT1080 cells transduced with human FAP cDNA; also called HT1080-FAP; FAP+ HT1080
The assay can be described thus: flow cytometry, scFv-Fc on HT1080-FAP cells.

For assay [3], the target named is human FAP protein (human, UniProt Q12884 26-760, limits assumed). The assay can be described thus: method not stated.
Assay [4] has as its target T3, mouse FAP protein (mouse, UniProt P97321 1-761).
T3 construct: also called murine FAP
The experiment in a line: method not stated.

Substitutions are numbered along the chain they refer to.

T1 sequence (P97321 other isoform, or with tags, fused parts or gaps): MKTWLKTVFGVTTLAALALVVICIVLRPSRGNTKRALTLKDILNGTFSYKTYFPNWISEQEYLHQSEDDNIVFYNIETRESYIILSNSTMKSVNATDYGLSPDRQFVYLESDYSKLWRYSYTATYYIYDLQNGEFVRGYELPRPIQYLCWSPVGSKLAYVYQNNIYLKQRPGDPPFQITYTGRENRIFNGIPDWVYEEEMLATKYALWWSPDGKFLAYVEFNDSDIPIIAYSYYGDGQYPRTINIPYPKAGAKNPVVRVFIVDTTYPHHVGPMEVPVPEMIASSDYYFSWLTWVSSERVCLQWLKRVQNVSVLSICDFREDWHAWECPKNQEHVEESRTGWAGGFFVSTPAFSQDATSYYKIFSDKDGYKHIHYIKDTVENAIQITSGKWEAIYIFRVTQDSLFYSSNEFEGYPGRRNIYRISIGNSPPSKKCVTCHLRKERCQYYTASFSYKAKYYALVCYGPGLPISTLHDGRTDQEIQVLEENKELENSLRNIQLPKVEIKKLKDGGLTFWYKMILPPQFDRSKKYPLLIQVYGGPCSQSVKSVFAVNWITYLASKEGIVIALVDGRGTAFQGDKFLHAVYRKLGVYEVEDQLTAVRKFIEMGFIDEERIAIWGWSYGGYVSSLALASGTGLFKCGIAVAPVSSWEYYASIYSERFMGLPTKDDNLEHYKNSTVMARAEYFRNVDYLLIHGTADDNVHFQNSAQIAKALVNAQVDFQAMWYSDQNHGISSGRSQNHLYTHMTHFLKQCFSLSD
T3 sequence (P97321 other isoform, or with tags, fused parts or gaps limits assumed, form in doubt): as the sequence (P97321 other isoform, or with tags, fused parts or gaps) above

B1: FAP.84.A11 (Fc fusion)
VH: DVQLVESGGGLVQPGGSLRLSCAASGFSMSNFAMTWVRQAPGEGLEWVSGIRGSGTTYYADSVKGRFTVSRDNSKNTLYLQMNSLRAEDTAIYYCAKTWGTEYFDYWGLGTLVTVSS
VL: EIVLTQSPGTLSLSPGERATLSCRASQPINNYLAWYQQKPGQAPRLLIFSASNRATGIPDRFSGSGSGTEFTLTISSLEPEDFAVYYCQQYYDWPPYTFGGGTKVEIK
notes: Tested as scFv-Fc; orientation, linker and Fc of this construct not specified
As for B1, the MFI in assay [1] was found to be 1410 MFI; in assay [2], 27300 MFI.

B2: FAP.84.B2 (Fc fusion)
VH: DVQLVESGGGVVRPGESLRLSCAASGFSFSSYAMNWVRQAPGKGLEWVSAISGSGGGTFYADSVKGRFTISRDNSKNTLYLQMNSLRAEDTAIYYCAKDPFGYGFFDSWGLGTLVTVSS
VL: EIVMTQSPATLSVSPGDRATLSCRASQTVGSKLAWYQQKPGQAPRLLIYAASSRATGIPDRFSGSGSGTDFTLTISSLEPEDFAVYYCQQYYNWPPAFGGGTKVEIK
notes: as for B1
Turning to B2, the figures for the MFI in assay [1] and in assay [2] were 2260 MFI and 17300 MFI, respectively.

B3: FAP-C3 parental (scFv)
scFv: EIVLTQSPGTLSLSPGERATLSCRASQSVGHYLAWYQQKPGQAPRLLIYDASNRAIDIPDRFSGSGSGTEFTLTISRLEPEDFAVYYCQQYYNNWPPLTFGGGTKVEIKGGGGSGGGGSGGGGSGGGGSDVQLVESGGGVVRPGESLTLSCAASGFTFSNYDMGWVRQAPGEGLEWVSGIRGRGGSTYYADSVKGRFTISRDSSKNTLYLQMNSLRAEDTAVYYCAKENNRHSFFEYWGLGTLVTVSS
notes: the format in the KD assay is told only as 'SCFV'; also called FAP-C3SCFVWT; FAP #4
For B3, the Kd in assay [3] was found to be 0.036 nM; in assay [4], 33 nM.

B4: FAP-C3 VK1-VH14 (FAP #5) (scFv)
scFv: B3 scFv with N94D, N160S, D191E, D202E, N230E
notes: format in the KD assay not described; also called FAP-C3VK1VH14 (ND, SY, ES, ES, ER); FAP-C3-VK1-VH4
B4: the Kd in assay [3] came to 0.024 nM; in assay [4] it was 4.6 nM.

B5: FAP.84.C11 (Fc fusion)
VH: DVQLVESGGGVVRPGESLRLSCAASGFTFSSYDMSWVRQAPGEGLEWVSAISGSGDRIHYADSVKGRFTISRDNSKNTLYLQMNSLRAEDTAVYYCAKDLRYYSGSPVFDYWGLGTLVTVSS
VL: EIVLTQSPGTLSLSPGERAILSCRASQTVGSRLAWYQQKPGQAPRLLIYAASSRATGIPDRFSGSGSGTEFTLTISSLQSEDFAVYYCQQYYDWPPLTFGGGTKVEIK
notes: as for B1
With B5, the MFI in assay [1] amounted to 1430 MFI; in assay [2], 27000 MFI.

B6: FAP.84.B8 (Fc fusion)
VH: DVQLVESGGSVVRPGESLRLSCAASGFPFSSYPMTWVRQAPGEGLEWVSSIRGSGDRIHYADSVKGRFTISKDSSNNTLYLQMNSLRAEDTAVYYCATGWNFFDYWGLGTLVTVSS
VL: EIVLTQSPGTLSLSPGERATLSCRASQTVATYLAWYQQKPGQAPRLLIYAAISRATGIPDRFSGSGSGTDFTLTITRLEPEDSAVYYCQQYKDWPPLTFGGGTKVEIK
notes: as for B1
Consider B6, for which the MFI in assay [1] was 1490 MFI; in assay [2], 24300 MFI.

B7: FAP.84.A9 (Fc fusion)
VH: B6 VH with S10G, E16G, G53P, S54I, K72R
VL: B6 VL with S22T, S63I, T76N, S83F
notes: as for B1
B7: the MFI came to 1300 MFI in assay [1] and 25400 MFI in assay [2].

B8: FAP-A11 parental (scFv)
scFv: EIVLTQSPGTLSLSPGERATLSCRASQPINNYLAWYQQKPGQAPRLLIFSASNRATGIPDRFSGSGSGTEFTLTISSLEPEDFAVYYCQQYYDWPPYTFGGGTKVEIKGGGGSGGGGSGGGGSGGGGSDVQLVESGGGLVQPGGSLRLSCAASGFSMSNFAMTWVRQAPGEGLEWVSGIRGSGTTYYADSVKGRFTVSRDNSKNTLYLQMNSLRAEDTAIYYCAKTWGTEYFDYWGLGTLVTVSS
notes: the format in the KD assay is told only as 'SCFV'; also called FAP-A11SCFV(WT); FAP #1
For B8, the dissociation constant Kd in assay [3] was 1.04 nM; in assay [4] it was less than 0.02 nM.

B9: FAP-A11 VK3-VH13 (FAP #2) (scFv)
scFv: B8 scFv with N30R, N31S, D189E, N201Q, N204Q, N211Q
notes: format in the KD assay not described; also called FAP-A11VK3VH13 (RS, QQQ); A11 VK3/VH3
On to B9, for which the figures for the Kd in assay [3] and in assay [4] were 0.538 nM and less than 0.02 nM, respectively.

B10: FAP-A11 VK3-VH1 (scFv)
scFv: B8 scFv with N30R, N31S, D189E
notes: also called FAP-A11VK3VH1 (RS, NNN)
Consider B10, for which the Kd in assay [3] is 0.199 nM; in assay [4], less than 0.02 nM.

B11: FAP-A11 VK7-VH1 (FAP #3) (scFv)
scFv: B8 scFv with N30S, N31S, D189E
notes: format in the KD assay not described; also called FAP-A11VK7VH1 (SS, NNN)
For B11, the Kd in assay [3] is 1.5 nM; in assay [4] it was less than 0.02 nM.

B12: FAP.84.B7 (Fc fusion)
VH: DVQLVESGGGVVRPGESLRLSCAASGFIFRNYAMTWVRQAPGEGLEWVSTIRSSGSGRTDTYYADSVKGRFTISRDSSNNTLYLQMNSLRAEDTAVYYCAKSGTFWDTFFDYWGLGTLVTVSS
VL: EIVLTQNPGTLNLSPGERATLTCRASQSAGRNLAWYQQKPGQTPRLLIYDVNTRATGIPDRFSGSGSGTEFNLTISSLQNEDFAVYYCQQYNNWPPLTFGGGTKVEIK
notes: as for B1
With B12, the MFI stood at 1610 MFI in assay [1] and 24000 MFI in assay [2].
